Molecular target: the molecule itself
Assay: SEC

B1: RdgC Δfinger R118C (natural protein)
chain: not shown
Does B1 bind?
Result: binds

B2: RdgC R118C (natural protein)
chain: not shown
Does B2 bind?
Result: binds

B3: RdgC protein (Escherichia coli), wild type (natural protein)
chain: not shown
For B3, which “stoichiometry N” value is on record?
Its value is 2.

B4: RdgC Δfinger (P76G, Δ77–115, L116T) (natural protein)
chain: not shown
Does B4 bind?
Result: binds

Source: publication PMC2965237 (Nucleic Acids Research, 2010)
